Source: US7294481

Target: TNF-α (UniProt P01375)
Assay: cell-based or functional assay

Chain of UniProt P01375 (P01375 77-233 limits assumed): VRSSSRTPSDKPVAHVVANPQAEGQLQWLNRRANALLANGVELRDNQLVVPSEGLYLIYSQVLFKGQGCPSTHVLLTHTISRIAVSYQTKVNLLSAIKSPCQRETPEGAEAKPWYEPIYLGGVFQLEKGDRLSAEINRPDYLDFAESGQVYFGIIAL
Chain of recombinant human TNFR:Fc fusion protein (TNFR-II:Fc), protein A purified, not HIC-fractionated (chain): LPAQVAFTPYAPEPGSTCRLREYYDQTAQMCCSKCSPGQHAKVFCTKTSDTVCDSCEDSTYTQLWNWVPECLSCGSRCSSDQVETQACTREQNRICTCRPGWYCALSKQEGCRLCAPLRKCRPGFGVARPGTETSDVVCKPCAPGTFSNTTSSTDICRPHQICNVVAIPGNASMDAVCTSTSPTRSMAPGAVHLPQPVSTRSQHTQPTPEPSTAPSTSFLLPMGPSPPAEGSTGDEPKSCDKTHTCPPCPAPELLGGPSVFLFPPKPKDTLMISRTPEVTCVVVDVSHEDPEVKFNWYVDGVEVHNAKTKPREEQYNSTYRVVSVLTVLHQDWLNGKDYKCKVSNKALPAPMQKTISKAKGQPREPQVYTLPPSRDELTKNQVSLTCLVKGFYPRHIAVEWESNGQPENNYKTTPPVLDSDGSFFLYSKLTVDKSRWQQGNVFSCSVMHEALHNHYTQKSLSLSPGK

| bioactivity (A375 assay; HIC with sodium acetate gradient) [U/mg] | Bioassay 10^6 units/mg (n = 2); VA12 cells, production at 28° C., IGF-1 [units/mg] | Bioassay 10^6 units/mg (n = 2); VA12 cells, production at 32° C., IGF-1 [units/mg] | Bioassay 10^6 units/mg (n = 2); VA12 cells, production at 34° C., IGF-1 [units/mg] | Bioassay 10^6 units/mg (n = 2); VA12 cells, production at 37° C., IGF-1 [units/mg] | Substance | bioactivity (A375 cell killing neutralisation assay), compared to unfractionated material [%] |
| --- | --- | --- | --- | --- | --- | --- |
| 2.71e+06 | – | – | – | – | TNFR:Fc, HIC peak 2 fraction (Fc fusion) | 117 |
| < 340000 | – | – | – | – | TNFR:Fc, HIC peak 3 fraction (Fc fusion) | 11 |
| – | 2.07e+06 | 1.62e+06 | 950000 | 490000 | recombinant human TNFR:Fc fusion protein (TNFR-II:Fc), protein A purified, not HIC-fractionated | – |
